Experimental data published in patent EP4692114A1, “CALCITONIN ANALOGUE, AND DERIVATIVE THEREOF AND USE THEREOF” (Hangzhou Sciwind Biosciences Co., Ltd., priority 2023, dated 2024).
*1 amine or outer side, *2 acyl side, *3 side chain or, on linkers, in order; H or OH if unused. [ ]: non-standard residue; d: D form. The star is where a group is joined. C20 diacid = O=C(O)CCCCCCCCCCCCCCCCCCC(=O)*; γGlu = O=C(O)[C@H](CCC(=O)[*:2])N[*:1]; βAsp = O=C(O)[C@H](CC(=O)[*:2])N[*:1]; AEEA = NCCOCCOCC(=O)O

B1: calcitonin derivative M60 (peptide)
peptide: {C20 diacid}-D[AEEA][AEEA]ASQLSTAVLGRLSEELHRLQDYPRTDVGSGSP-NH2
SMILES: CC(C)C[C@H](NC(=O)[C@H](CCCNC(=N)N)NC(=O)CNC(=O)[C@H](CC(C)C)NC(=O)[C@@H](NC(=O)[C@H](C)NC(=O)[C@@H](NC(=O)[C@H](CO)NC(=O)[C@H](CC(C)C)NC(=O)[C@H](CCC(N)=O)NC(=O)[C@H](CO)NC(=O)[C@H](C)NC(=O)COCCOCCNC(=O)COCCOCCNC(=O)[C@H](CC(=O)O)NC(=O)CCCCCCCCCCCCCCCCCCC(=O)O)[C@@H](C)O)C(C)C)C(=O)N[C@@H](CO)C(=O)N[C@@H](CCC(=O)O)C(=O)N[C@@H](CCC(=O)O)C(=O)N[C@@H](CC(C)C)C(=O)N[C@@H](Cc1c[nH]cn1)C(=O)N[C@@H](CCCNC(=N)N)C(=O)N[C@@H](CC(C)C)C(=O)N[C@@H](CCC(N)=O)C(=O)N[C@@H](CC(=O)O)C(=O)N[C@@H](Cc1ccc(O)cc1)C(=O)N1CCC[C@H]1C(=O)N[C@@H](CCCNC(=N)N)C(=O)N[C@H](C(=O)N[C@@H](CC(=O)O)C(=O)N[C@H](C(=O)NCC(=O)N[C@@H](CO)C(=O)NCC(=O)N[C@@H](CO)C(=O)N1CCC[C@H]1C(N)=O)C(C)C)[C@@H](C)O
B2: calcitonin derivative M43 (peptide)
peptide: {C20 diacid-βAsp}-ASQLSTAVLGRLSDELHRLQDYPRTDVGSGSP-NH2
SMILES: CC(C)C[C@H](NC(=O)[C@H](CCCNC(=N)N)NC(=O)CNC(=O)[C@H](CC(C)C)NC(=O)[C@@H](NC(=O)[C@H](C)NC(=O)[C@@H](NC(=O)[C@H](CO)NC(=O)[C@H](CC(C)C)NC(=O)[C@H](CCC(N)=O)NC(=O)[C@H](CO)NC(=O)[C@H](C)NC(=O)C[C@H](NC(=O)CCCCCCCCCCCCCCCCCCC(=O)O)C(=O)O)[C@@H](C)O)C(C)C)C(=O)N[C@@H](CO)C(=O)N[C@@H](CC(=O)O)C(=O)N[C@@H](CCC(=O)O)C(=O)N[C@@H](CC(C)C)C(=O)N[C@@H](Cc1c[nH]cn1)C(=O)N[C@@H](CCCNC(=N)N)C(=O)N[C@@H](CC(C)C)C(=O)N[C@@H](CCC(N)=O)C(=O)N[C@@H](CC(=O)O)C(=O)N[C@@H](Cc1ccc(O)cc1)C(=O)N1CCC[C@H]1C(=O)N[C@@H](CCCNC(=N)N)C(=O)N[C@H](C(=O)N[C@@H](CC(=O)O)C(=O)N[C@H](C(=O)NCC(=O)N[C@@H](CO)C(=O)NCC(=O)N[C@@H](CO)C(=O)N1CCC[C@H]1C(N)=O)C(C)C)[C@@H](C)O
B3: calcitonin derivative M12 (peptide)
peptide: {C20 diacid-γGlu}-ASQLSTAVLGRLSTELHRLQDYPRTDVGSGSP-NH2
SMILES: CC(C)C[C@H](NC(=O)[C@H](CCCNC(=N)N)NC(=O)CNC(=O)[C@H](CC(C)C)NC(=O)[C@@H](NC(=O)[C@H](C)NC(=O)[C@@H](NC(=O)[C@H](CO)NC(=O)[C@H](CC(C)C)NC(=O)[C@H](CCC(N)=O)NC(=O)[C@H](CO)NC(=O)[C@H](C)NC(=O)CC[C@H](NC(=O)CCCCCCCCCCCCCCCCCCC(=O)O)C(=O)O)[C@@H](C)O)C(C)C)C(=O)N[C@@H](CO)C(=O)N[C@H](C(=O)N[C@@H](CCC(=O)O)C(=O)N[C@@H](CC(C)C)C(=O)N[C@@H](Cc1c[nH]cn1)C(=O)N[C@@H](CCCNC(=N)N)C(=O)N[C@@H](CC(C)C)C(=O)N[C@@H](CCC(N)=O)C(=O)N[C@@H](CC(=O)O)C(=O)N[C@@H](Cc1ccc(O)cc1)C(=O)N1CCC[C@H]1C(=O)N[C@@H](CCCNC(=N)N)C(=O)N[C@H](C(=O)N[C@@H](CC(=O)O)C(=O)N[C@H](C(=O)NCC(=O)N[C@@H](CO)C(=O)NCC(=O)N[C@@H](CO)C(=O)N1CCC[C@H]1C(N)=O)C(C)C)[C@@H](C)O)[C@@H](C)O

The binders below were run against T1, human amylin receptor (AMY3) on CHO-K1/Gal5/AMY3 cells (human, UniProt P30988 25-474; O60896 24-148) (assay: cell-based or functional assay).
T1 sequence (looked up) 1: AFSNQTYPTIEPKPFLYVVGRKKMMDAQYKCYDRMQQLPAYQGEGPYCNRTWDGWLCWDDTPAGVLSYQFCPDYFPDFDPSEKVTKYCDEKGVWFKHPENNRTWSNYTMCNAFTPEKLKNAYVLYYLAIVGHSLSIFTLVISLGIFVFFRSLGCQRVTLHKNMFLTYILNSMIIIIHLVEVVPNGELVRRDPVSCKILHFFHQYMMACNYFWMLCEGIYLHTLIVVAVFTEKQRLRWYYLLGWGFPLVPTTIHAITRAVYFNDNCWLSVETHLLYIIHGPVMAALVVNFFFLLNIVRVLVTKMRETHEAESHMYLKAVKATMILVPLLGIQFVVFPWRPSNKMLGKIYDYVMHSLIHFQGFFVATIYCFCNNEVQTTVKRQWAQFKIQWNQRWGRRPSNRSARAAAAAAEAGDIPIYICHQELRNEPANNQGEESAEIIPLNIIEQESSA
T1 sequence (looked up) 2: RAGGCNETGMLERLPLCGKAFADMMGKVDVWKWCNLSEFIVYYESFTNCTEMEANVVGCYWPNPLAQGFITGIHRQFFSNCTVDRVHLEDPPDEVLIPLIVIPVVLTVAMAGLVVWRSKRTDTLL

| Binder | EC50/nM, CRE-luciferase in amylin receptor/CRE-luc CHO cells [nM] |
| --- | --- |
| B1 | 0.016 |
| B2 | 0.017 |
| B3 | 0.017 |
